Data from the supplement of paper PMC10567573.

B1: SMOC2 (parent)
chain: DCAGSPQKPLCASDGRTFLSRCEF
B2: ZNF511 (parent)
chain: HLYPADFRFDKPKKSRSPASAEAP

Variants of: B1
Test: protein stability index of a GFP-peptide fusion (GPS, HEK-293T) (PSI 1-6); higher = more stable
Details: c terminus: a fixed tail appended
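Further: lentivirally expressed fusions sorted by FACS into six bins by GFP to DsRed ratio, PSI derived from sequencing read proportions per bin multiplied by bin number.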

Protein stability index: each site, then its substitutions
P9: W 1.04 | Y 2.47
L10: A 2.92 | C 2.85 | D 3.29 | E 3.84 | F 1.82 | G 3.23 | H 3.54 | I 2.63 | K 3.1 | M 2.56 | N 2.08 | P 2.93 | Q 4.04 | R 2.48 | S 2.97 | T 2.65 | V 2.28 | W 2.16 | Y 2.47
C11: A 2.7 | D 3.79 | E 3.46 | F 1.8 | G 2.04 | H 2.73 | I 2.56 | K 2.72 | L 3.3 | M 3.23 | N 2.67 | P 3.47 | Q 2.82 | R 2.28 | S 3.19 | T 2.48 | V 2.66 | W 2.41 | Y 2.58
A12: C 1.59 | D 2.88 | E 3.96 | F 1.89 | G 2.29 | H 2.18 | I 2.5 | K 2.59 | L 2.56 | M 2.7 | N 2.94 | P 3.11 | Q 3.1 | R 2.14 | S 4.06 | T 3.32 | V 2.97 | W 1.51 | Y 2.47
S13: A 3.39 | C 2.16 | D 3.16 | E 3.25 | F 1.7 | G 2.08 | H 2.29 | I 3.88 | K 2.39 | L 2.07 | M 2.3 | N 2.82 | P 1.9 | Q 2.58 | R 2.34 | T 2.91 | V 2.61 | W 2.09 | Y 2.25
D14: A 2.52 | C 1.6 | E 2.54 | F 1.81 | G 2.56 | H 1.78 | I 2.12 | K 2.4 | L 2.2 | M 2 | N 2.47 | P 2.36 | Q 2.39 | R 2.03 | S 3.19 | T 2.82 | V 2.6 | W 1.89 | Y 2.26
G15: A 4.08 | C 1.99 | D 3.49 | E 4.05 | F 2.42 | H 2.27 | I 2.76 | K 2.3 | L 2.17 | M 2.81 | N 3.01 | P 3 | Q 2.57 | R 2.83 | S 2.5 | T 2.65 | V 2.03 | W 2.06 | Y 2.81
R16: A 2.99 | C 2.33 | D 4.12 | E 4.14 | F 1.35 | G 3.4 | H 3.97 | I 2.4 | K 3.29 | L 2.5 | M 2.88 | N 3.61 | P 3.43 | Q 3.19 | S 3.08 | T 3.39 | V 2.77 | W 1.72 | Y 2.33
T17: A 2.83 | C 2.04 | D 3.12 | E 3.82 | F 2.32 | G 3.97 | H 3.45 | I 2.33 | K 3.44 | L 2.11 | M 3.31 | N 3.27 | P 3.4 | Q 3.7 | R 2.47 | S 2.66 | V 2.22 | W 1.29 | Y 2.77
F18: A 3.52 | C 3.73 | D 4.51 | E 4.54 | G 4.82 | H 4.32 | I 3.4 | K 4.09 | L 4.12 | M 4.01 | N 4.26 | P 4 | Q 3.89 | R 3.84 | S 3.83 | T 4 | V 2.84 | W 1.79 | Y 3.09
L19: A 2.44 | C 3.85 | D 4.93 | E 3.51 | F 4.33 | G 3.07 | H 3.82 | I 2.07 | K 3.53 | M 2.99 | N 4.01 | P 3.97 | Q 2.49 | R 3.35 | S 3.06 | T 2.59 | V 1.88 | W 2.34 | Y 2.49
S20: A 2.85 | C 2.86 | D 4.1 | E 2.93 | F 1.25 | G 2.17 | H 2.68 | I 3.04 | K 3.04 | L 3.1 | M 1.41 | N 3.64 | P 3.59 | Q 2.97 | R 3.23 | V 3.04 | W 3.01 | Y 1.9
R21: A 2.71 | C 2.44 | D 4.14 | E 3.62 | F 2.02 | G 4.57 | H 3.26 | I 1.67 | K 2.67 | L 3.02 | M 1.68 | N 3.78 | P 3.91 | Q 3.1 | T 1.9 | V 2.65 | W 1.76 | Y 2.27
C22: A 3.86 | D 4.81 | E 4.38 | F 2.5 | G 3.96 | H 3.68 | K 4.42 | L 2.5 | M 2.31 | N 4.36 | P 3.95 | Q 4.19 | S 3.49 | T 3.29 | V 2.63 | W 2.93 | Y 3.67
E23: A 2.59 | C 2.53 | D 3.65 | F 2.38 | G 1.5 | H 2.46 | I 1.52 | K 3.63 | L 4.25 | M 2.1 | N 3.31 | P 2.95 | Q 3.27 | R 2.43 | S 2.74 | T 2.19 | V 1.73 | W 1.82 | Y 1.84
F24: A 3.45 | D 4.38 | E 4.41 | H 3.79 | I 3.16 | K 2.97 | L 3.44 | M 2.72 | N 3.93 | P 2.43 | Q 3.6 | R 2.57 | S 3.46 | T 2.61 | V 3.32 | W 2.02 | Y 2.67

Variants of: B2
Test: as above
Details: c terminus: a fixed tail appended

Protein stability index: each site, then its substitutions
H1: A 3.95 | C 3.59 | D 4.13 | E 3.81 | F 4.32 | G 4.7 | I 2.85 | K 4.05 | L 3.94 | M 4.09 | N 4.2 | P 4.58 | Q 3.65 | R 3.57 | S 4.48 | T 4.19 | V 3.67 | W 2.69 | Y 2.08
L2: A 4.37 | C 3.53 | D 4.91 | E 4.73 | F 4.37 | G 4.37 | H 3.58 | I 1.9 | K 4.6 | M 3.35 | N 4.38 | P 4.52 | Q 3.59 | R 4.1 | S 4.63 | T 4.64 | V 2.69 | W 2.87 | Y 3.84
Y3: A 4.14 | C 3.55 | D 4.58 | E 3.71 | F 3.13 | G 4.38 | H 2.69 | I 3.73 | K 3.84 | L 4.36 | M 4.4 | N 2.43 | P 4.73 | Q 3.85 | R 4.26
